The nanobody polyreactivity screen of Harvey et al. (2022)

Assay: yeast display, Sf9 membrane polyspecificity reagent, FACS + sequencing; frameworks hold sequencing errors
Method in brief: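 Galactose-induced (36–48 hours) yeast carrying a synthetic nanobody display library were exposed to 10% biotinylated, detergent-solubilized Sf9 membrane reagent at 4 °C for 1 hour. FACS followed streptavidin microbead enrichment, using low and high (top ~1%) gates for expression (anti-HA) and reagent binding (streptavidin). Colony PCR, MiSeq 2 × 250 sequencing and CDR-length filtering followed. Labels for polyreactivity reflect the gate of origin.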

Row | Sequence | polyreactivity (PSR sort gate)
1 | QVQLVESGGGLVQAGGSLRLSCAASGSTFSSYGMGWYRQAPGKERELVAAISKRGGSTYYADSVKGRFTISRDNAKNTVYLQMNSLKPEDTAVYYCAAAVRKQGYSTLFDYWGQGTQVTVSS | high polyreactivity
2 | QVQLVESGGCLVQAGGSLRLSCAASGSTFDYYMGWYRQAPGKERELVAAITYSGGSTYYADSVKGRFTISRDNAKNSVYLQMNSLNPEDTAVYYCAKDRSTFDDFYSNYYWGQGTQVTVSS | low polyreactivity
3 | QVQLVESGGGLVQAGGSLRLSCAASGRTFTEYAMGWYRQAPGKERELGAGIDSGSGSTYYADSVKGRFTISRDYAKNTVYLQMNSLHPEDTAVYYCAARDVWSPYDTDVDYWGQGTQVTVSS | low polyreactivity
4 | QVQHVESGGGLVQAGGSLRLSCAASGRTFDWYAMGRYRQAPGKEMELVAAISSGGSTYYADSVKGRFTISRDNAKNTVYLQMNSLKPEDTAVYYCAAEWHYIYAYDYWGQGTQVTVSS | low polyreactivity
5 | QVQLVESGGGLVQAGGSLRLSCAASGSTLRSYVMGWYRQAPGKERELVAAISIRGDSTYYADSVKGRFTISRDNAKNTVYLQMNSLKPEDTAVYYCAAASNRYPNSWYYYWGQGTQVTVSS | high polyreactivity
6 | QVQLVESGGCLVQAGGSLSLSCAASGSTFVAYAMGWYRQAPGKESELVAAISKSGVRTYYADYVKGRFTISRDNAKNTVYLQMNSLKPEDSAFYYCAALTYYSQVTSSVSLQQYGYWGQVTQVTVSS | low polyreactivity
7 | QVQLVESGGGLVQAGGSLRVSCAASGSTFNINAMGWYREAPGKERELVAAISSGGSTNYADSVKGRFTISRDNAKNTVYLQMNSLKPEDTAVYYCNADFILSGWWGIVGYDYWGQGTQVTVSS | low polyreactivity
8 | RVQLVESGGGLVQAGGSLRLSCAASGSTISRYAMGWYRQAPGKERELVASISRSGTSTYYADSVKGRFTISRDNAKNTVYLQMNSLKPEDTAVYYCNKRWATSIQYRYNYWGQGTQVTVSS | high polyreactivity
9 | QVQLVESGGGLVQAGGRLRLSCAASGSIFQSYALAWYRQAPGKERELVAVITGGGGSTYYADSVKARFTISRDNAKNTVYLQMNSLKPEDTAVYYCNADFPSFGVIYSTRKDDSWGQGTQVTVSS | low polyreactivity
10 | QVQLVESGGGLVQAGGSLRLTCAASGSIFRYYAMGWYRQAPGKERELVAAISSNGGSTYYADSVKGRFTISRDNAKNTVYLQMNSLKPEDTAVYYCAALFRRAPGYYWGQGTQVTVSS | high polyreactivity
11 | QVQLVESGGGLVQAGGSLRLSCAASGSIFPYNAMGWYRQAPGKERELVAAITQSGGSTYYADSVKGRFTISRDNAKNTVYLQMNSLQPEDTAVYYCAADDYGPEGDYWGQGTQVTVSS | low polyreactivity
12 | QVQLVESGGGLVQAGGSLRLSCAASGSIFDAYAMGWYRQSPGKERELVAAITTGGGSTYYADSVKGRFTISRDNAKNTVYLQMNSLKPEDTAVYYCAPDYGKYKGYYWGQGTQVTVSS | low polyreactivity
13 | QVQLVESGGGLVQAGGSLRLSCAASGIIFEYYAMGWYRQAPGKERELVASITSSDGSTYYADSVKGRFTISRDNAKNTVYLQMNSLKPEDTAVYYCAAAGDYVVPISSTAGFGGDYWGQGTQVTVSS | low polyreactivity
14 | KVQLVQSGGGLVQAGGILRLSCAASGRIFSSYAMGWYSQAPGKERELVAVISQRGGSTSYADSVKGRFTISRDNAKNTVYLQMNSLKPEDTAVYYCARRPGKGNNYWGQGTQVTVSS | high polyreactivity
15 | QVQLVESGGGLVQAGGSLRLSCAASGSTFGGYAMGWYRQAPGKERELVAAISGSGVRTYYADSVKGRFTISRDNAKNTVYLQMNSLKPEDTAVYYCAKRVRYPGDRYYYWGQGTQVTVSS | high polyreactivity
16 | QVQLVESGGGLVQSGGSLRLSCAASGSIFGSNAMGWYRQAPGKERELVAAISRSGTSTYYADSVKGRFTISRDNAKNTVDLQMTSLKPEDSAVYYSNTAQRYRVYRYDYWGQGTQVTVSS | high polyreactivity
17 | QVQLVESGGGLVQAGGSLRLSCAASGLTFGFYAMGWYRQAPGKERELVAGISNGGSTNYADSVKGRFTISRDNAKNTVYLQMNSLKPEDTAVYYCAARLYARRLYDYWGQRTQVTVSS | low polyreactivity
18 | QVQLVESGGGLVQAGGSLRLSCAASGRTFVQNAMGWYRQAPGKERELVASIRYRDGSTYYADSVKGRFTISRDNAKNTVYLQMNSLKREDTAVYYCAVRIGARGRGGKDRVYYWGQGTQVTVSS | high polyreactivity
19 | QVQLVESGGGLVQAGGSLRLSCAPSGIIFHKYAMGWYRQAPGTDRELVAVFTGRGGSTYYADSVKGRFTISRDFAKNTVYLQMNSLKPEDTAVYYCAAVTKSWRGATWYDYWGQGTQVTVSS | high polyreactivity
20 | QVQLVESGGGLVQAGGSLRLSCAASGSTFGWNTMGWYRQAPGKERELVAAISWSGDRTYYADSVKGRFTISRDNAKNTVYLQMNSLKPDDTAVYYCARQRYYGYYYWGQGTQVTVSS | high polyreactivity
21 | QVQLQESGGGPVLAGGRLRLSCAASGTIFVRLDMGWYRQAPGKEREFVATIGSGSSTYYADSVKGSFTISRDNVKNTVFLQMNTLIPEDTAVYYCAVSAAEQSRHYYWDQGTQVTVSS | low polyreactivity
22 | QVQLVESGGGLVQAGGSLRLSCAASGRIFYVNAMAWYRQAPGTEREFVAAIRVDGASTYYADSVKGRFTFSRDNAKNTVYLQMNSLKPEDTAVYYCAARTRSYWSTTYYYWGQGTEVTVSS | high polyreactivity

Row | Sequence | polyreactivity (PSR sort gate)
23 | QVQLVESGGGLVQAGGSLRLSCAASGRTLLYNAMGWYRQAPGKERELVAAISYRGGSTYYADSVKGRFTISRDNAKNTVYLQMNSLKPEDTAVYYCAKVTYPYIRWYYPGYDYWGQGTQVTVSS | high polyreactivity
24 | QVQLVESGGGLVQAGGSLPLSCAASRRTLYTNTMGWYRQAPGKESELDAGISKRGGSTYYADSVKGRFTITRDTAKNTVYLQMNSRKPEDTAVYYCNAPVSYWSRFRSPIYEYWGQGTQVTVSS | high polyreactivity
25 | QVQRVESGGGLVQAGVSLRLSCASSGITFDVNALGWYRQAPGKERELVAAITAGGNTYYADSVKGRFTISRDKAKTTVYLQMNSLKPEETAVYYCAAVSTSLYWAGYDYWGQGTQVTVSS | low polyreactivity
26 | QVQLVESGGGLVQAGGSLRLSCAASGSTFYAKAMGLYRQAPGKEREFVAVITQSGGSTYYADSVKGRFTISRDNAKNTVYLQMNSLKPEDTAVYYCAKTHYRRSLSMYYWGQGTQVTVSS | low polyreactivity
27 | QVKLVESAGGLVKAGGSLRLSSAASGITFNLYAMGCYSQSPGKERELVAAISWSGGSTYYADSVKGRFTISREHAKNTVYLQMNSLNQEDTAVYYCAAAWDYSAPYTYIYDYWGLGTQVTVSS | low polyreactivity
28 | QVQLVESGGGLVQAGGSLRLSCAASGSTFIHNAMGWYRQAPRKERELVAAITSGGSTYYADSVKGRFTISRDNAKNTVYLQMNSLKPEDTAVYYCNRGSWRYSTMEYWGQGTQVTVSS | high polyreactivity
29 | QVQLVESGGGLVQAGGSLRLSCAASGSIFNSNAMGWYRQAPGTERELDAGISNIGGSTYYADSVKGRFTISRDYAKNTVYLQMNSLKPEDTAVYFCNADRLQPNRYYYWGQGTQVTVSS | high polyreactivity
30 | QVHLVESGGGLVQAGGSLRFSCAASGSTFDDYAMGWYRQAPGKERELVAAISRSDGSTSYADSVKGRFTISRDNAKNTVYLQMNSLKPEDTAVYYCAADPVFKDDLWPVRVRVDYWGQGTQVTVSS | low polyreactivity
31 | QVQLVESGGGLVQAGGSLRLTCAASGGTLDYNAMGWYRQAPGKERELVAPISAGADGTYYADSVKGRFTISRDNAKNTVYLQMNSLKPEDSAVYYCAARPKNNWARTNFGIRYNDWGQGTQVTVSS | high polyreactivity
32 | QVQLVESGGGLVQAGGSLRLSCAASGSTFYKYAMGWYRQAPGKERELVAAITRSGGSTYYADSVKGRFTISRDNAKNTVYLQMNSLKPEDTAVYYCNADRKSRSKGVGYDYWGQGTQVTVSS | high polyreactivity
33 | QDQLVESGGGLVQAGGSLRLSCAASGSIFRYYDMGWSRQAPGKERELVAAISDSTGTTYYADSVKGRFTISRDNAKNTVYLQMNSLKPEDTAVYYCNTAYNRYWRPFNSLYYWGQGTQVTVSS | high polyreactivity
34 | QVQLVESGGGLVQAGGSLRLSCAASGRIFYGYVMGWYRQAPGKERELVAAITWSGSRTYYADSVKGRFTISRDNAKNTVYLQMNSLKPEDTAVYYCAARIPSDGYYYWGQGTQVTVSS | high polyreactivity
35 | QVQLVESGGGLVQAGGSLRLSCAASGSIFSINAMGWYRQAPGKERELVAVISWIGGNTYYADSVKGRFTISRDNAKNTVYLQMNSLKPEDTAVYYCAVATGPVSYRRYYWGQGTQVTVSS | high polyreactivity
36 | QVQLVESGGGLVQAGGSLRLSCAASGFIFDTYAMGWYRQAPGKERDLVAVISSGGSTYYADSVKGRVTISRDNAKNTVYLQMNSLKPEDTAVYYCAADSGYLGIYGDDYSWGQGTQVSVSS | low polyreactivity
37 | QVQLVESGGGLDQAGGSLRLSCAASGRIFGRYAMGWYRQAPGKERELVASISRGGSTNYADSVKGRFTISRDNAKNTVYLQMNSLKPEDTAVYYCAKSGGVGGEDRVGSWGQGTQVTVSS | low polyreactivity
38 | QVQIVESGGGLVQAGGSLRFSCADSGFTFYSYAIVWYRQAPGKERELVAAISWSGGSTYYADSVKGRFTISRDNAKNTVYLQMNSLKPEDTAVYFCNAPYIGEHYYWGQGTQVTVSS | high polyreactivity
39 | QVQLVESGGGLDQAGGSLRLSCAASGGIFQKYAMGWYRQAPGQERELVAAISYSTTRTYYADSVKGRFTISRDNAKKTVYLQMNSLKPEDTAVYYCAARGYFWSSYKYDYWGQGTQVTVSS | high polyreactivity
40 | QVQLVESGGGLVQAGGSLRLSCAASGRTFFWYAMGWYRQAPGKERELVADISSSGGSTYYADSVKGRFTISRDNAKNTVYLQMNSLKPEDTAVYYCAALSPWWRGGYNYWGQGTQVTVSS | high polyreactivity
41 | QVQLQESGGGLVQAGGSQRLSCAASGYIFYFQYMGWYRQAPGKEREFVAAISDGANTNYADSVKGRFTISRDNAKNTEYLQMNSLKPEDTAVYYCAVYADEKYYYIYWGQGTQVTVSS | low polyreactivity
42 | QVQLVESGGGLVQAGGSLRLSCAASGNTFLPNAMGWYRQAPGKERELVAAISNSGGSTYYADSVKGRFTISRDNAKNTVYLQMNSLKPEDTAVYYCAKRQWFPYYRGRDYWGQGTQVTVSS | high polyreactivity
43 | QVQLVESGGGLVQAGGSLRLSCAASVYTSNYYAMGWYRQAPGKEREFVAAITASSVSTYYADSVKGRFTISRDNAKNTVYVQMNSLKPEDTAVYYCAVVYISYTSWLWVYWLVDFDYWGQGTQVTVSS | low polyreactivity
